Columns and labels:
[1] = tested on: hemagglutinin of highly pathogenic influenza virus H5N1_01
[2] = tested on: hemagglutinin of highly pathogenic influenza virus H5N1_02
[3] = tested on: hemagglutinin of highly pathogenic influenza virus H5N6
[4] = tested on: hemagglutinin of lowly pathogenic influenza virus H1N1 (Experimental Example 4)
[5] = tested on: hemagglutinin of lowly pathogenic influenza virus H1N1_01
[6] = tested on: hemagglutinin of lowly pathogenic influenza virus H1N1_02
[7] = tested on: hemagglutinin of lowly pathogenic influenza virus H2N1
[8] = tested on: hemagglutinin of lowly pathogenic influenza virus H2N4
[9] = tested on: hemagglutinin of lowly pathogenic influenza virus H3N2 (Experimental Example 4)
[10] = tested on: hemagglutinin of lowly pathogenic influenza virus H3N8
[11] = tested on: hemagglutinin of lowly pathogenic influenza virus H7N7
[12] = tested on: hemagglutinin of lowly pathogenic influenza virus H7N9
[13] = tested on: hemagglutinin of lowly pathogenic influenza virus H9N2 (Experimental Example 4)
[14] = tested on: hemagglutinin of lowly pathogenic influenza virus H9N2_01
[15] = tested on: hemagglutinin of lowly pathogenic influenza virus H9N2_02

## trypsin
[1]
  fluorescence intensity of probe of Preparation Example 1, trypsin only, pH 5.5: 2950
  fluorescence intensity of probe of Preparation Example 2, trypsin only, pH 5.5: 4000
  fluorescence intensity of probe of Preparation Example 3, trypsin only, pH 5.5: 3410
[2]
  fluorescence intensity of probe of Preparation Example 1, trypsin only, pH 5.5: 2960
  fluorescence intensity of probe of Preparation Example 2, trypsin only, pH 5.5: 4540
  fluorescence intensity of probe of Preparation Example 3, trypsin only, pH 5.5: 4360
[3]
  fluorescence intensity of probe of Preparation Example 1, trypsin only, pH 5.5: 2740
  fluorescence intensity of probe of Preparation Example 2, trypsin only, pH 5.5: 2760
  fluorescence intensity of probe of Preparation Example 3, trypsin only, pH 5.5: 2030
[4]
  fluorescence intensity of probe of Example 4-1, trypsin only, pH 5.5: 17,689
  fluorescence intensity of probe of Example 4-2, trypsin only, pH 5.5: 17,581
  fluorescence intensity of probe of Example 4-3, trypsin only, pH 5.5: 15,674
[5]
  fluorescence intensity of probe of Preparation Example 1, trypsin only, pH 5.5: 3350
  fluorescence intensity of probe of Preparation Example 2, trypsin only, pH 5.5: 4020
  fluorescence intensity of probe of Preparation Example 3, trypsin only, pH 5.5: 3720
[6]
  fluorescence intensity of probe of Preparation Example 1, trypsin only, pH 5.5: 4550
  fluorescence intensity of probe of Preparation Example 2, trypsin only, pH 5.5: 4720
  fluorescence intensity of probe of Preparation Example 3, trypsin only, pH 5.5: 3150
[7]
  fluorescence intensity of probe of Preparation Example 1, trypsin only, pH 5.5: 2210
  fluorescence intensity of probe of Preparation Example 2, trypsin only, pH 5.5: 2120
  fluorescence intensity of probe of Preparation Example 3, trypsin only, pH 5.5: 2060
[8]
  fluorescence intensity of probe of Preparation Example 1, trypsin only, pH 5.5: 4020
  fluorescence intensity of probe of Preparation Example 2, trypsin only, pH 5.5: 3090
  fluorescence intensity of probe of Preparation Example 3, trypsin only, pH 5.5: 3460
[9]
  fluorescence intensity of probe of Example 4-1, trypsin only, pH 5.5: 19,192
  fluorescence intensity of probe of Example 4-2, trypsin only, pH 5.5: 16,812
  fluorescence intensity of probe of Example 4-3, trypsin only, pH 5.5: 16,362
[10]
  fluorescence intensity of probe of Preparation Example 1, trypsin only, pH 5.5: 3600
  fluorescence intensity of probe of Preparation Example 2, trypsin only, pH 5.5: 4070
  fluorescence intensity of probe of Preparation Example 3, trypsin only, pH 5.5: 3400
[11]
  fluorescence intensity of probe of Preparation Example 1, trypsin only, pH 5.5: 2600
  fluorescence intensity of probe of Preparation Example 2, trypsin only, pH 5.5: 2070
  fluorescence intensity of probe of Preparation Example 3, trypsin only, pH 5.5: 2510
[12]
  fluorescence intensity of probe of Preparation Example 1, trypsin only, pH 5.5: 3990
  fluorescence intensity of probe of Preparation Example 2, trypsin only, pH 5.5: 4600
  fluorescence intensity of probe of Preparation Example 3, trypsin only, pH 5.5: 3250
[13]
  fluorescence intensity of probe of Example 4-1, trypsin only, pH 5.5: 18,345
  fluorescence intensity of probe of Example 4-2, trypsin only, pH 5.5: 18,950
  fluorescence intensity of probe of Example 4-3, trypsin only, pH 5.5: 18,035
[14]
  fluorescence intensity of probe of Preparation Example 1, trypsin only, pH 5.5: 3750
  fluorescence intensity of probe of Preparation Example 2, trypsin only, pH 5.5: 4580
  fluorescence intensity of probe of Preparation Example 3, trypsin only, pH 5.5: 3510
[15]
  fluorescence intensity of probe of Preparation Example 1, trypsin only, pH 5.5: 3280
  fluorescence intensity of probe of Preparation Example 2, trypsin only, pH 5.5: 4720
  fluorescence intensity of probe of Preparation Example 3, trypsin only, pH 5.5: 3730

## furin
[1]
  fluorescence intensity of probe of Preparation Example 1, furin only, pH 5.5: 2840
  fluorescence intensity of probe of Preparation Example 2, furin only, pH 5.5: 4680
  fluorescence intensity of probe of Preparation Example 3, furin only, pH 5.5: 4330
[2]
  fluorescence intensity of probe of Preparation Example 1, furin only, pH 5.5: 2130
  fluorescence intensity of probe of Preparation Example 2, furin only, pH 5.5: 4840
  fluorescence intensity of probe of Preparation Example 3, furin only, pH 5.5: 5000
[3]
  fluorescence intensity of probe of Preparation Example 1, furin only, pH 5.5: 2420
  fluorescence intensity of probe of Preparation Example 2, furin only, pH 5.5: 2720
  fluorescence intensity of probe of Preparation Example 3, furin only, pH 5.5: 2250
[4]
  fluorescence intensity of probe of Example 4-1, furin only, pH 5.5: 3,721
  fluorescence intensity of probe of Example 4-2, furin only, pH 5.5: 3,955
  fluorescence intensity of probe of Example 4-3, furin only, pH 5.5: 4,344
[5]
  fluorescence intensity of probe of Preparation Example 1, furin only, pH 5.5: 492
  fluorescence intensity of probe of Preparation Example 2, furin only, pH 5.5: 374
  fluorescence intensity of probe of Preparation Example 3, furin only, pH 5.5: 327
[6]
  fluorescence intensity of probe of Preparation Example 1, furin only, pH 5.5: 594
  fluorescence intensity of probe of Preparation Example 2, furin only, pH 5.5: 364
  fluorescence intensity of probe of Preparation Example 3, furin only, pH 5.5: 490
[7]
  fluorescence intensity of probe of Preparation Example 1, furin only, pH 5.5: 371
  fluorescence intensity of probe of Preparation Example 2, furin only, pH 5.5: 333
  fluorescence intensity of probe of Preparation Example 3, furin only, pH 5.5: 569
[8]
  fluorescence intensity of probe of Preparation Example 1, furin only, pH 5.5: 426
  fluorescence intensity of probe of Preparation Example 2, furin only, pH 5.5: 347
  fluorescence intensity of probe of Preparation Example 3, furin only, pH 5.5: 477
[9]
  fluorescence intensity of probe of Example 4-1, furin only, pH 5.5: 4,697
  fluorescence intensity of probe of Example 4-2, furin only, pH 5.5: 4,953
  fluorescence intensity of probe of Example 4-3, furin only, pH 5.5: 1,731
[10]
  fluorescence intensity of probe of Preparation Example 1, furin only, pH 5.5: 399
  fluorescence intensity of probe of Preparation Example 2, furin only, pH 5.5: 442
  fluorescence intensity of probe of Preparation Example 3, furin only, pH 5.5: 313
[11]
  fluorescence intensity of probe of Preparation Example 1, furin only, pH 5.5: 432
  fluorescence intensity of probe of Preparation Example 2, furin only, pH 5.5: 401
  fluorescence intensity of probe of Preparation Example 3, furin only, pH 5.5: 575
[12]
  fluorescence intensity of probe of Preparation Example 1, furin only, pH 5.5: 545
  fluorescence intensity of probe of Preparation Example 2, furin only, pH 5.5: 461
  fluorescence intensity of probe of Preparation Example 3, furin only, pH 5.5: 528
[13]
  fluorescence intensity of probe of Example 4-1, furin only, pH 5.5: 3,134
  fluorescence intensity of probe of Example 4-2, furin only, pH 5.5: 3,703
  fluorescence intensity of probe of Example 4-3, furin only, pH 5.5: 4,218
[14]
  fluorescence intensity of probe of Preparation Example 1, furin only, pH 5.5: 353
  fluorescence intensity of probe of Preparation Example 2, furin only, pH 5.5: 443
  fluorescence intensity of probe of Preparation Example 3, furin only, pH 5.5: 461
[15]
  fluorescence intensity of probe of Preparation Example 1, furin only, pH 5.5: 418
  fluorescence intensity of probe of Preparation Example 2, furin only, pH 5.5: 571
  fluorescence intensity of probe of Preparation Example 3, furin only, pH 5.5: 306

From patent US20170307612
